Assay results reported in IntAct's records for PubMed 19909339.

B1: Olfactory receptor 2AG1 (Homo sapiens), Q9H205 (parent)
chain: MELWNFTLGSGFILVGILNDSGSPELLCATITILYLLALISNGLLLLAITMEARLHMPMYLLLGQLSLMDLLFTSVVTPKALADFLRRENTISFGGCALQMFLALTMGGAEDLLLAFMAYDRYVAICHPLTYMTLMSSRACWLMVATSWILASLSALIYTVYTMHYPFCRAQEIRHLLCEIPHLLKVACADTSRYELMVYVMGVTFLIPSLAAILASYTQILLTVLHMPSNEGRKKALVTCSSHLTVVGMFYGAATFMYVLPSSFHSTRQDNIISVFYTIVTPALNPLIYSLRNKEVMRALRRVLGKYMLPAHSTL

Variants of: B1
Settings: with mpdz_human MPDZ

Variant | effect of a mutation on the interaction
MELWNFTLGSGFILVGILNDSGSPELLCATITILYLLALISNGLLLLAITMEARLHMPMYLLLGQLSLMDLLFTSVVTPKALADFLRRENTISFGGCALQMFLALTMGGAEDLLLAFMAYDRYVAICHPLTYMTLMSSRACWLMVATSWILASLSALIYTVYTMHYPFCRAQEIRHLLCEIPHLLKVACADTSRYELMVYVMGVTFLIPSLAAILASYTQILLTVLHMPSNEGRKKALVTCSSHLTVVGMFYGAATFMYVLPSSFHSTRQDNIISVFYTIVTPALNPLIYSLRNKEVMRALRRVLGKYMLPAHWTL [S314W] | disrupting interaction
MELWNFTLGSGFILVGILNDSGSPELLCATITILYLLALISNGLLLLAITMEARLHMPMYLLLGQLSLMDLLFTSVVTPKALADFLRRENTISFGGCALQMFLALTMGGAEDLLLAFMAYDRYVAICHPLTYMTLMSSRACWLMVATSWILASLSALIYTVYTMHYPFCRAQEIRHLLCEIPHLLKVACADTSRYELMVYVMGVTFLIPSLAAILASYTQILLTVLHMPSNEGRKKALVTCSSHLTVVGMFYGAATFMYVLPSSFHSTRQDNIISVFYTIVTPALNPLIYSLRNKEVMRALRRVLGKYMLPAHSTW [L316W] | disrupting interaction
